The target in test [1] is T1, Aβ(1-42) peptide in the CSF of an Alzheimer's disease patient (human).
T1 construct: Endogenous peptide immunoprecipitated from patient CSF; also called Aβ(1-42) peptide present in cerebrospinal fluid (CSF)
Kind of test: immunoprecipitation from CSF with antibody-coated Dynabeads, urea-PAGE and Western blot. The procedure:
Activation of Dynabeads with monoclonal mouse antibodies [0497] the stock-suspension of dynabeads (Dynabeads M-280 Sheep anti-Mouse IgG, Invitrogen; Prod. No. 112.02) was shaken carefully to prevent foaming [0498] 1 mL was aseptically removed and transferred to a 1.5 mL reaction vial [0499] the dynabeads were washed 3 times 5 min with 1 mL immunoprecipitation (IP)-wash buffer (IP-wash-buffer: PBS (20 mM NaH₂PO₄, 140 mM NaCl, pH 7.4), 0.1% (w/v) BSA) During the washing procedure the supernatant was carefully removed while the dynabeads were immobilized at the side of the reaction vial with a magnetic separator stand (MSS) [0500] the washed dynabeads were incubated with 40 μg Aβ-antibody in 1 mL PBS, 0.1% (w/v) BSA [0501] the activation was carried out by overnight incubation under shaking at 4° C. [0502] the activated dynabeads were washed 4 times 30 min (again using the MSS) with 1 mL IP-wash buffer (PBS (20 mM NaH₂PO₄, 140 mM NaCl, pH 7.4), 0.1% (w/v) BSA) [0503] the activated dynabeads were resuspended with 1 mL PBS, 0.1% (w/v) BSA, 0.02% (w/v) Na-Azide; vortexed and centrifuged briefly [0504] the antibody activated dynabeads were stored at 4° C. until further use
250 μL aliquot of the prepared CSF sample were added to 25 μL anti-Aβ-Dynabeads suspension [0507] Immunoprecipitation occurred under stirring at 6° C. for 16 hours. […]

For test [2], the target named is T2, Aβ(20-42) globulomer (human).
T2 peptide: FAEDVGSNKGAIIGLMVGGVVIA
Kind of test: dot blot, antibody 0.2 µg/mL. The procedure: (§1) For detection, the corresponding antibody was used (0.2 μg/mL). Immunostaining was done using peroxidase conjugated anti-mouse-IgG and the staining reagent BM Blue POD Substrate (Roche).
(§2) 1) 1 μL each of the different Aβ-standards (in their 5 serial dilutions) were dotted onto the nitrocellulose membrane in a distance of approximately 1 cm from each other. [0267] 2) The Aβ-standards dots were allowed to dry on the nitrocellulose membrane on air for at least 10 min at room temperature (RT) (=dot blot). [0268] 3) Blocking: [0269] The dot blot was incubated with 30 mL 5% low fat milk in TBS for 1.5 h at RT. [0270] 4) Washing: [0271] The blocking solution was discarded and the dot blot incubated under shaking with 20 mL TTBS for 10 min at RT. [0272] 5) Antibody solution I: [0273] The washing buffer was discarded and the dot blot incubated with antibody solution I for 2 h at RT. [0274] 6) Washing: [0275] The antibody solution I was discarded and the dot blot incubated under shaking with 20 mL TTBS for 10 min at RT. The washing solution was discarded and the dot blot incubated under shaking with 20 mL TTBS for 10 min at RT. The washing solution was discarded and the dot blot incubated under shaking with 20 mL TBS for 10 min at RT. [0276] 7) Antibody solution II: [0277] The washing buffer was discarded and the dot blot incubated with antibody solution II overnight at RT. [0278] 8) Washing: [0279] The antibody solution II was discarded and the dot blot incubated under shaking with 20 mL TTBS for 10 min at RT. The washing solution was discarded and the dot blot incubated under shaking with 20 mL TTBS for 10 min at RT. The washing solution was discarded and the dot blot incubated under shaking with 20 mL TBS for 10 min at RT. [0280] 9) Development: [0281] The washing solution was discarded. The dot blot was developed with 10 mL BM Blue POD Substrate for 10 min. The development was stopped by intense washing of the dot blot with H₂O. Quantitative evaluation was done using a densitometric analysis (GS800 densitometer (BioRad) and software package Quantity one, Version 4.5.0 (BioRad)) of the dot-intensity. […] This threshold value was determined for every dot-blot independently.

Test [3] deals with T3, Aβ(1-42) monomer (human).
T3 construct: Synthetic peptide (Bachem H-1368) freshly dissolved in 0.1% NH4OH or 0.1% NaOH; both preparations were dotted; also called Aβ(1-42) monomer, 0.1% NH4OH; Aβ(1-42) monomer, 0.1% NaOH
As to the kind of experiment: dot blot, antibody 0.2 µg/mL. On the procedure:
as §1, §2

The target of test [4] is T4, Aβ(1-42) globulomer (human).
T4 construct: also called 38/48-kDa Aβ(1-42) globulomer; Aβ(1-42) globular oligomer
Kind of test: dot blot, antibody 0.2 µg/mL. The procedure:
as §1, §2

In test [5] the target is T5, Aβ(1-40) monomer (human).
T5 construct: Synthetic peptide (Bachem) freshly dissolved in 0.1% NH4OH or 0.1% NaOH; both preparations were dotted; also called Aβ(1-40) monomer, 0.1% NH4OH; Aβ(1-40) monomer, 0.1% NaOH
T5 sequence (peptide, as listed by the source): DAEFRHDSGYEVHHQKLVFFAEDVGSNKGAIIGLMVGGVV
Kind of test: dot blot, antibody 0.2 µg/mL. On the procedure: as §1, §2

Test [6] concerns the target T6, Aβ(12-42) globulomer (human).
T6 peptide: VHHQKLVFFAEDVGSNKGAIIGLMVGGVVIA
As to the kind of experiment: dot blot, antibody 0.2 µg/mL. The procedure: as §1, §2

The target of test [7] is T7, soluble amyloid precursor protein-alpha (sAPPα) (UniProt P05067-4 18-612, limits assumed).
T7 construct: Bought protein; also called sAPPα (Sigma)
T7 sequence (P05067 other isoform, or with tags, fused parts or gaps limits assumed): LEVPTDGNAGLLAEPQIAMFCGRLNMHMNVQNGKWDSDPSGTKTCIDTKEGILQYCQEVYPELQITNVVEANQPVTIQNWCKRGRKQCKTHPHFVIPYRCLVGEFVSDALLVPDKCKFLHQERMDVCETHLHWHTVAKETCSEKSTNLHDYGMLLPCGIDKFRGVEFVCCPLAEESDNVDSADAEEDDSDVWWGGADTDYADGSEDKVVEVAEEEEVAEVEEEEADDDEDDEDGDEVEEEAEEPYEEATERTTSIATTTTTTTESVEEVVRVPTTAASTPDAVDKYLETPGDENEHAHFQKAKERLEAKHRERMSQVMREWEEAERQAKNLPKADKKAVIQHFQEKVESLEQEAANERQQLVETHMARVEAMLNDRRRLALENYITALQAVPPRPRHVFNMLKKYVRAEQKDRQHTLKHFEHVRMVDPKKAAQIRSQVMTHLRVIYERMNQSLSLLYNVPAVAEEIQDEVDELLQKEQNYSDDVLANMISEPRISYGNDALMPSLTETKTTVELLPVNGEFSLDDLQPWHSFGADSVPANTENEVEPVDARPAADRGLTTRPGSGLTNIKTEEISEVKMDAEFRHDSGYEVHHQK
Kind of test: dot blot on nitrocellulose, densitometry. The procedure: as §1
1) 1 μL each of the different Aβ-standards (in their 5 serial dilutions) were dotted onto the nitrocellulose membrane in a distance of approximately 1 cm from each other. [0267] 2) The Aβ-standards dots were allowed to dry on the nitrocellulose membrane on air for at least 10 min at room temperature (RT) (=dot blot). [0268] 3) Blocking: [0269] The dot blot was incubated with 30 mL 5% low fat milk in TBS for 1.5 h at RT. [0270] 4) Washing: [0271] The blocking solution was discarded and the dot blot incubated under shaking with 20 mL TTBS for 10 min at RT. [0272] 5) Antibody solution I: [0273] The washing buffer was discarded and the dot blot incubated with antibody solution I for 2 h at RT. [0274] 6) Washing: [0275] The antibody solution I was discarded and the dot blot incubated under shaking with 20 mL TTBS for 10 min at RT. The washing solution was discarded and the dot blot incubated under shaking with 20 mL TTBS for 10 min at RT. […] Quantitative evaluation was done using a densitometric analysis (GS800 densitometer (BioRad) and software package Quantity one, Version 4.5.0 (BioRad)) of the dot-intensity. […] This threshold value was determined for every dot-blot independently.

B1: monoclonal antibody 3C5 (antibody, V domains shown)
VH: DVQLQESGPGLVKPSQSLSLTCTVAGSSITSHYAWNWIRQFPGNKLEWMGYIDYSGSTRYLPSLKSRISITRDTSKNQFFLQLNSVTTEDTATYYCARGSGYFYGMDYWGQGTSVTVSS
VL: DIQMNQSPSSLSPSLGDTITITCHASQNINVWLSWYQQKPGNIPKLLIYKASNLHTGVPSRFSGSGSGIGFTLTIRSLQPEDIATYFCQQGQSYPYTFGGGTKLEIKR
notes: Murine monoclonal antibody from a hybridoma (Balb/c mice immunized with Aβ(12-42) globulomer); also called mAb 3C5; ML45-3C5.5
For B1, the binding result in test [1], in test [2], in test [3], in test [4], in test [5] and in test [6] was “binds” throughout. Besides, the binding result in test [7] is given as “no binding (tested: antibody 0.2 µg/mL; first dot: 1 pmol)”.

B2: monoclonal antibody 10F4 (antibody, V domains shown)
VH: QVQLQQSGAELVRPGTSVRVSCKASGYAFTNYLIEWVKQRPGQGLEWIGVINPGSGDTNYNENFKGKATLTADKSSSTAYMHLSSLTSDDSAVYFCTRGVITTGFDYWGQGTTLTISS
VL: DIQMTQSPASLSASVGETVTITCRASGNIHNYLAWYQQKQGKSPQLLVYNAKTLADGVPSRFSGSGSGTQYSLKINSLQPEDFGSYYCQHFWSSPRTFGGGTKLEIKR
notes: Murine monoclonal antibody from a hybridoma (Balb/c mice immunized with Aβ(12-42) globulomer); also called mAb 10F4; ML43-10F4.3H8
Turning to B2, the binding result in test [1], in test [2], in test [3], in test [4], in test [5] and in test [6] was “binds” in each case. The binding result in test [7] is listed as “no binding (tested: antibody 0.2 µg/mL; first dot: 1 pmol)”.

Source of the values: US20090035307A1 (AbbVie / Abbott, published 2009).
